Results reported in PMC3364176.

Biological target: bovine brain microtubules (bovine) (UniProt Q6B856)
Test: co-sedimentation

B1: GST-CSAP (glutathione S-transferase fusion with full-length centriole and spindle-associated protein) (natural protein)
chain: MSPGSGVKSEYMKRYQEPRWEEYGPCYRELLHYRLGRRLLEQAHAPWLWDDWGPAGSSEDSASSESSGAGGPAPRCAPPSPPPPVEPATQEEAERRARGAPEEQDAEAGDAEAEDAEDAALPALPVKDVEDKPEQQTRTRETDKSPTSTEPRQQPSALFARGNRKAVKSPQRSSSKIKENKHPFALYGWGEKQTDTGSQKTHNVCASAPVHEIHESALRAKNRRQVEKRKLVAQRQRAHSVDVEKNRKMKASSSENPWMTEYMRCYSARA
  Kd: 1 to 2 µM
